Experimental data: publication PMC9482650, “Quantitative fragmentomics allow affinity mapping of interactomes” (Nature Communications, 2022)

How the values were obtained:
Assay in all cases: holdup assay
Design in all cases: key: below the threshold = too weak to quantify, mostly under pKd 3.1 to 4
Details in all cases: plain residues with an end cap or a label only (N-terminal biotin on a linker: ahx)
[1] = target: TJP1_2, Q07157
[2] = target: MAGI3_2, Q5TCQ9
[3] = target: T1, SYNJ2BP, P57105
T1 sequence (P57105 8-110, limits assumed, looked up): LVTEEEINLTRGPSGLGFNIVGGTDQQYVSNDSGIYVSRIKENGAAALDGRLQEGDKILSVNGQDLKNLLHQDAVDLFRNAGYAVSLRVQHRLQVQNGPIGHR

[4] = target: IL16_1, Q14005
Sequence of IL16_1, Q14005 (Q14005 210-306): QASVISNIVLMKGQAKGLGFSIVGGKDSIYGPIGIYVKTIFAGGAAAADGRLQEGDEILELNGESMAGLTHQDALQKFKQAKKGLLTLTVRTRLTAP

[5] = target: DLG4_2, P78352
Sequence of DLG4_2, P78352 (P78352 155-259): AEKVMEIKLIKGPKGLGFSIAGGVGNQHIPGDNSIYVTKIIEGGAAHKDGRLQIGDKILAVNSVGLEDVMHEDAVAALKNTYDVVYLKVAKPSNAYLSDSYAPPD

[6] = target: PARD3_3, Q8TEW0
Sequence of PARD3_3, Q8TEW0 (Q8TEW0 582-685): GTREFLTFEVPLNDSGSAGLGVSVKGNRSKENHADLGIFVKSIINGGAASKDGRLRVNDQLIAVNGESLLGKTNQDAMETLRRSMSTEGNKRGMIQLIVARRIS

[7] = target: T2, SNTG2, Q9NY99
T2 sequence (Q9NY99 68-166, limits assumed, looked up): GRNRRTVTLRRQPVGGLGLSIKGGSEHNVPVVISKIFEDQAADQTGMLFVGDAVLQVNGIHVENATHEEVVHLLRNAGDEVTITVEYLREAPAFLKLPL

[8] = target: FRMPD2_1, Q68DX3
Sequence of FRMPD2_1, Q68DX3 (Q68DX3 770-861): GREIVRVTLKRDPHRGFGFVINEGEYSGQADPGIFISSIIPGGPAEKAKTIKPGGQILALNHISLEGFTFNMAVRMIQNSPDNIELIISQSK

[9] = target: GRID2IP_1, A4D2P6
Sequence of GRID2IP_1, A4D2P6 (A4D2P6 1-87): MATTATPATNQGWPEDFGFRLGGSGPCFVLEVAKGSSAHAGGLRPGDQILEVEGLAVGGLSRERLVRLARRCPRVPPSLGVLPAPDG

[10] = target: T3, PDZRN3_1, Q9UPQ7
T3 sequence (Q9UPQ7 244-349, limits assumed, looked up): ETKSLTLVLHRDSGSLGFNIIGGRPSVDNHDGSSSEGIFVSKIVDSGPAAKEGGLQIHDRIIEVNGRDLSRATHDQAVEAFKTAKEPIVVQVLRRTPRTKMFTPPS

[11] = target: T4, NHERF3_4, Q5T2W1
T4 sequence (Q5T2W1 373-468, limits assumed, looked up): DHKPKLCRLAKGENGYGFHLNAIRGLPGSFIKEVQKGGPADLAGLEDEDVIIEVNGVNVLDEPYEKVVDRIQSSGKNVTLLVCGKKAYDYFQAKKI

[12] = target: MAGI2_3, Q86UL8
Sequence of MAGI2_3, Q86UL8 (Q86UL8 600-682): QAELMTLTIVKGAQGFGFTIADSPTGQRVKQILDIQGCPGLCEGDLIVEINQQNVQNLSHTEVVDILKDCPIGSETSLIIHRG

[13] = target: DLG5_1, Q8TDM6
Sequence of DLG5_1, Q8TDM6 (Q8TDM6 617-713): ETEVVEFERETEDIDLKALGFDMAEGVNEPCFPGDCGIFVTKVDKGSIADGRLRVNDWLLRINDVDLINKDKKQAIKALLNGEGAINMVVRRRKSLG

[14] = target: MAGI2_2, Q86UL8
Sequence of MAGI2_2, Q86UL8 (Q86UL8 410-522): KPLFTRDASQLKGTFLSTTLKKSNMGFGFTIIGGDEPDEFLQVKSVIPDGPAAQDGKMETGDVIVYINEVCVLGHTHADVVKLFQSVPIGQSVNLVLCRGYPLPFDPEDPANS

[15] = target: T5, GRIP1_5, Q9Y3R0
T5 sequence (Q9Y3R0 568-668, limits assumed, looked up): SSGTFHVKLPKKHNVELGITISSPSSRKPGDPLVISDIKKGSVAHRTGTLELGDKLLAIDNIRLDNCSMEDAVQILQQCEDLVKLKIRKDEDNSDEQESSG

[16] = target: SNX27, Q96L92
[17] = target: T6, MPDZ_12, O75970
T6 sequence (O75970 1857-1958, limits assumed, looked up): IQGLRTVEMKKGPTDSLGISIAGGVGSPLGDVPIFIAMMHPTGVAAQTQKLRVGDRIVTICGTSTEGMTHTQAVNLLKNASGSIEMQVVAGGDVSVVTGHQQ

[18] = target: SCRIB_2, Q14160
Sequence of SCRIB_2, Q14160 (Q14160 857-960): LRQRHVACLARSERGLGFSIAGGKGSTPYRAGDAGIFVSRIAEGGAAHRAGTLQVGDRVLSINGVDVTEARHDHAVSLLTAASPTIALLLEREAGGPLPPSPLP

[19] = target: T7, SNTG1, Q9NSN8
T7 sequence (Q9NSN8 52-150, limits assumed, looked up): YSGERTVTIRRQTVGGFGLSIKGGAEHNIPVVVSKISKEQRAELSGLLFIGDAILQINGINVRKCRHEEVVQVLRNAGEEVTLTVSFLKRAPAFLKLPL

[20] = target: DLG4_3, P78352
Sequence of DLG4_3, P78352 (P78352 306-403): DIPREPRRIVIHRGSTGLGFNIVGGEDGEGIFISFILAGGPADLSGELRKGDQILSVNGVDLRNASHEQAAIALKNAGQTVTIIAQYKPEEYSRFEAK

[21] = target: GRID2IP_2, A4D2P6
Sequence of GRID2IP_2, A4D2P6 (A4D2P6 272-370): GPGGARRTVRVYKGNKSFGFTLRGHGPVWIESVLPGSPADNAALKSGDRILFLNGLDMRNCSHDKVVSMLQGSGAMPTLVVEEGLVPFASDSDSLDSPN

[22] = target: MAGI2_5, Q86UL8
Sequence of MAGI2_5, Q86UL8 (Q86UL8 915-1017): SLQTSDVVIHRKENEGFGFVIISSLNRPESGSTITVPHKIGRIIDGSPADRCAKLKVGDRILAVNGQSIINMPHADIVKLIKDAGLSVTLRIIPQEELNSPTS

[23] = target: LDB3, O75112
Sequence of LDB3, O75112 (O75112 1-94): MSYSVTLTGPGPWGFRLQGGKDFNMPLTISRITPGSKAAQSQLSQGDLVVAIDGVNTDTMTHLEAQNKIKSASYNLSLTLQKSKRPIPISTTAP

[24] = target: FRMPD2_2, Q68DX3
Sequence of FRMPD2_2, Q68DX3 (Q68DX3 944-1038): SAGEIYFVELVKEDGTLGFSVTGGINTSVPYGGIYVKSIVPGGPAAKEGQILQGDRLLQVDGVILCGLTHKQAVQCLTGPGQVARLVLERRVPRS

[25] = target: T8, LNX2_2, Q8N448
T8 sequence (Q8N448 334-432, limits assumed, looked up): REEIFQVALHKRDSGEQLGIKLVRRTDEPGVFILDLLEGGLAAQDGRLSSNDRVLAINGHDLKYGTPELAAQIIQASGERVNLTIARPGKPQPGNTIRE

[26] = target: NOS1, P29475
Sequence of NOS1, P29475 (P29475 9-101): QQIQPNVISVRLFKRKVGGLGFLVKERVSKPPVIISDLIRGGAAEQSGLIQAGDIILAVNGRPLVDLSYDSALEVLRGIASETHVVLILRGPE

[27] = target: T9, TX1BP3, O14907
T9 sequence (O14907 10-122, limits assumed, looked up): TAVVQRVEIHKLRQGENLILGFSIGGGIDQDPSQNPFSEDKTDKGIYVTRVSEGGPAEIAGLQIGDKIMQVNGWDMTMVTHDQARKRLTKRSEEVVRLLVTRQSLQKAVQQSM

[28] = target: T10, TIAM2, Q8IVF5
T10 sequence (Q8IVF5 885-986, limits assumed, looked up): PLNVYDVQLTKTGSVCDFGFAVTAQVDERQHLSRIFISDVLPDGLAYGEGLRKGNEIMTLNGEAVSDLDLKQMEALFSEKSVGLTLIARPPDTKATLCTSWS

Sequence of TJP1_2, Q07157 (Q07157 181-274): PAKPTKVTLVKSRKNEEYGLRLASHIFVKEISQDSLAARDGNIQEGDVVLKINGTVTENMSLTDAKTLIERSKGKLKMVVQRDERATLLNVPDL
Sequence of MAGI3_2, Q5TCQ9 (Q5TCQ9 398-503): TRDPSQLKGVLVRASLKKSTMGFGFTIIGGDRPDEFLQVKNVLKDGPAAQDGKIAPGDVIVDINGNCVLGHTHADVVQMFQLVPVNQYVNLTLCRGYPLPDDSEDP

pKd [1]: below the threshold
pKd [2]: below the threshold
pKd [3]: below the threshold
pKd [4]: below the threshold
pKd [5]: below the threshold
pKd [6]: below the threshold
pKd [7]: below the threshold
pKd [8]: below the threshold
pKd [9]: below the threshold
pKd [10]: 3.49
pKd [11]: 3.95
pKd [12]: below the threshold
pKd [13]: below the threshold
pKd [14]: below the threshold
pKd [15]: below the threshold
pKd [16]: 3.91
pKd [17]: below the threshold
pKd [18]: below the threshold
pKd [19]: below the threshold
pKd [20]: below the threshold
pKd [21]: below the threshold
pKd [22]: below the threshold
pKd [23]: below the threshold
pKd [24]: below the threshold
pKd [25]: below the threshold
pKd [26]: below the threshold
pKd [27]: 3.65
pKd [28]: below the threshold
Binder: GIFPTLTSPL [SHROOM3, Q8TF72]
